Earlier results, collected in article PMC4698235.

How the values were obtained:
IDE (Homo sapiens) = IDE (Homo sapiens) (UniProt P14735)
insulin (Homo sapiens) = insulin (Homo sapiens) (UniProt P01308)
Chain of UniProt P01308 (P01308 90-110): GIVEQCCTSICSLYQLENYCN

Kd (IDE (Homo sapiens)): 10 nM | Kd (insulin (Homo sapiens)): 10 nM
Substance: IDE (from UniProt P14735)
